Test results published in publication PMC4476257 (Molecular pharmaceutics, 2015).
Where two headings read alike, the source gives them in different places. Bridge positions count the residues as written; N and C are the ends. Square brackets hold non-standard residues; d marks the D form. Ends that are not written are not given here. Peptide text beside a SMILES is read from it. I, II: the chains in the order shown. * marks the point of attachment. Dolaproine = CO[C@@H]([C@@H]1CCCN1)[C@@H](C)C(=O)O; Dil = CC[C@H](C)[C@H](NC)[C@@H](CC(=O)O)OC; X1 = C[C@@H](N*)[C@@H](O)c1ccccc1; NMeV = CN[C@H](C(=O)O)C(C)C; Mpa = O=C(O)CCS

Columns and labels:
[1] = test system: HeLa and MDA-MB-231 cells; experiment: Anti-proliferation assay, statements pooled over both cell lines; format: cell-based, human; conditions: HeLa and MDA-MB-231 (Figures 3E, 3F), 2.5 µM, 2 h treatment, MTT after 72 h
[2] = test system: HeLa cells; experiment: Anti-proliferation assay; conditions: 5 µM, physiological pH, 2 h treatment, MTT after 72 h, Figures 3A and 3E
[3] = test system: MDA-MB-231 cells; experiment: Anti-proliferation assay; format: cell-based, human; conditions: MDA-MB-231, 1.25 µM, 2 h treatment, MTT after 72 h; Figures 3B and 3D
[4] = test system: HeLa and MDA-MB-231 cells; experiment: Cell membrane integrity assay; format: cell-based, human; conditions: HeLa and MDA-MB-231, 10 µM, 2 h, pH 7.4 or pH 5.0; mean, n=4; Figure 4
[5] = peptide:lipid 1:300, 7 µM, 25 °C, excitation 295 nm
[6] = pH 7.4 to pH 5.0, POPC liposomes, peptide:lipid 1:300, 7 µM, 25 °C
[7] = toxin derivatives conjugated to pHLIP; cited from earlier work

## CC[C@H](C)[C@@H]([C@@H](CC(=O)N1CCC[C@H]1[C@H](OC)[C@@H](C)C(=O)N[C@H](C)[C@@H](O)c1ccccc1)OC)N(C)C(=O)[C@@H](NC(=O)[C@@H](NC)C(C)C)C(C)C [MMAE, monomethyl auristatin E] (H-[NMeV]V[Dil][Dolaproine]-X1)
[1]
  cytotoxicity: 20–30%
[2]
  cytotoxicity: about 70%

## I: GGEQNPIYWARYADWLFTTPLLLLELALLVDADEGTCG-NH2 / II: [Mpa][NMeV]V[Dil][Dolaproine]-X1 (disulfide I:37-II:1) [pHLIP(D25E)-MMAE]
[3]
  cell killing at 1.25 µM (percentage as printed): 49%
[4]
  disruption of the plasma membrane (trypan blue uptake): neither conjugates, nor low pH treatment, caused disruption of the membranes
[5]; pH 5.0, POPC liposomes
  Trp fluorescence emission maximum: 329 nm
[5]; pH 7.4, POPC liposomes
  Trp fluorescence emission maximum: 347 nm
[6]
  pH-dependent secondary structure transition (CD): transition from an unstructured conformation to an α-helix

## amanitin
[7]
  pK of insertion: 5.9
